T1: HE4-GST (human) (UniProt Q14508)
T1 sequence: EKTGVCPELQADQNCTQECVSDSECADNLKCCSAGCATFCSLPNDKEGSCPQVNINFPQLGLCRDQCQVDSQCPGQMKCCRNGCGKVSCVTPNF

T2: HE4-GST (human, UniProt Q14508 31-124)
T2 sequence: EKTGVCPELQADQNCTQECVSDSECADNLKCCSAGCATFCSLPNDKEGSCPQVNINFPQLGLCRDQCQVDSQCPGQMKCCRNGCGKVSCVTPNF


Experiments:
[1] = biological target: T1, HE4-GST (human); experiment: fluorescence anisotropy; settings: TGK: 25 mM Tris, 192 mM glycine, 5 mM KH2PO4, pH 8.3, 25 C, no divalent cations; APCE 10 nM DNA, 1 mg/mL BSA; anisotropy 0.1 mg/mL BSA, HE4-GST 0-750 nM
[2] = biological target: T2, HE4-GST; experiment: affinity probe capillary electrophoresis; TGK: 25 mM Tris, 192 mM glycine, 5 mM KH2PO4, pH 8.3, 25 C, no divalent cations; APCE 10 nM DNA, 1 mg/mL BSA; anisotropy 0.1 mg/mL BSA, HE4-GST 0-750 nM; settings: protein: commercial; tags: GST; label: 5' FAM (APCE); 5' TEX615 (anisotropy)
[3] = biological target: T2, HE4-GST; experiment: fluorescence anisotropy; TGK: 25 mM Tris, 192 mM glycine, 5 mM KH2PO4, pH 8.3, 25 C, no divalent cations; APCE 10 nM DNA, 1 mg/mL BSA; anisotropy 0.1 mg/mL BSA, HE4-GST 0-750 nM; settings: protein: commercial; tags: GST; label: 5' FAM (APCE); 5' TEX615 (anisotropy)
[4] = biological target: T2, HE4-GST; experiment: affinity probe capillary electrophoresis; discrepant with anisotropy; TGK: 25 mM Tris, 192 mM glycine, 5 mM KH2PO4, pH 8.3, 25 C, no divalent cations; APCE 10 nM DNA, 1 mg/mL BSA; anisotropy 0.1 mg/mL BSA, HE4-GST 0-750 nM; settings: protein: commercial; tags: GST; label: 5' FAM (APCE); 5' TEX615 (anisotropy)

| Molecule | Kd [1] [nM] | Kd [2] [nM] | Kd [3] [nM] | Kd [4] [nM] |
| --- | --- | --- | --- | --- |
| ATGGTCGCAAGAACTGAGAATTTAC [D3] | 26000 |  |  |  |
| CACAGTGCGTCACATTTAGGGCATT (ssDNA) [A3] |  | 500 | 9100 |  |
| CAGTGCGTGCTTATTGGCGTAGCGTC (ssDNA) [B10] |  | 870 | 280 |  |
| TTATCGTACGACAGTCATCCTACAC (ssDNA) [A1] |  | 390 | 2200 |  |
| CCGTCTTCTGCTTGAAAAAAAAAAA (ssDNA) [L1] |  |  |  | 300 |

— article PMC4551533, “Selection of DNA aptamers for ovarian cancer biomarker HE4 using CE-SELEX and high-throughput sequencing”
